Assay results taken from PMC9332313, “Folding and Binding Mechanisms of the SH2 Domain from Crkl” (Biomolecules, 2022).
Square brackets hold non-standard residues; d marks the D form. Ends that are not written are not given here. * marks the point of attachment. pY = N[C@@H](Cc1ccc(OP(=O)(O)O)cc1)C(=O)O; Dansyl = CN(C)c1cccc2c(S(=O)(=O)*)cccc12

Legend:
Conditions in all cases: both partners purified
[1] = molecular target: T1, SH2 domain of Crkl protein (residues 1-111), H80A variant (UniProt P46109 1-111, H80A); test: stopped-flow fluorescence kinetics (FRET); dansyl-Pax112-123 constant at 2 μM mixed with Crkl-SH2 2 to 10 μM (pseudo-first-order, kon); koff by displacement of the preincubated 2 µM complex with excess non-dansylated Pax112-123 (30 μM); 283 K; 50 mM TrisHCl pH 8.0, 0.5 M NaCl
T1 construct: Crkl adaptor protein, SH2 domain, residues 1-111, His80 replaced by alanine; Site-directed mutant of m1 (QuikChange); source: E. coli BL21 (DE3), purified (HisTrap nickel column, desalting); not shown: His tag, N-terminal, kept
T1 sequence (P46109 1-111 H80A): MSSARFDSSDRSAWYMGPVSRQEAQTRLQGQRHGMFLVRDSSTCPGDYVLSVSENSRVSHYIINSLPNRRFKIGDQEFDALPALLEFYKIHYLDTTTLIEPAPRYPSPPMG

[2] = molecular target: T2, SH2 domain of Crkl protein (residues 1-111), H91A variant (UniProt P46109 1-111, H91A); test: as above
T2 construct: Crkl adaptor protein, SH2 domain, residues 1-111, His91 replaced by alanine; Site-directed mutant of m1 (QuikChange); source: E. coli BL21 (DE3), purified (HisTrap nickel column, desalting); not shown: His tag, N-terminal, kept
T2 sequence (P46109 1-111 H91A): as the sequence (P46109 1-111 H80A) above, with A80H, H91A counted along it

[3] = molecular target: T3, SH2 domain of Crkl protein (residues 1-111), wild type (UniProt P46109 1-111); test: as above
T3 construct: Crkl adaptor protein, SH2 domain, residues 1-111; Subcloned in pET28b+; all experiments were done on the N-terminally His-tagged protein; also called Crkl-SH2; Crkl SH2 domain; source: E. coli BL21 (DE3), purified (HisTrap nickel column, desalting); not shown: His tag, N-terminal, kept
T3 sequence (P46109 1-111): as the sequence (P46109 1-111 H80A) above, with A80H counted along it

[4] = molecular target: T4, SH2 domain of Crkl protein (residues 1-111), H33A variant (UniProt P46109 1-111, H33A); test: as above
T4 construct: Crkl adaptor protein, SH2 domain, residues 1-111, His33 replaced by alanine; Site-directed mutant of m1 (QuikChange); source: E. coli BL21 (DE3), purified (HisTrap nickel column, desalting); not shown: His tag, N-terminal, kept
T4 sequence (P46109 1-111 H33A): as the sequence (P46109 1-111 H80A) above, with H33A, A80H counted along it

[5] = molecular target: T1, SH2 domain of Crkl protein (residues …); test: stopped-flow fluorescence kinetics (FRET); dansyl-Pax112-123 constant at 2 μM mixed with Crkl-SH2 2 to 10 μM (pseudo-first-order, kon); koff by displacement of the preincubated 2 µM complex with excess non-dansylated Pax112-123 (30 μM); 283 K; 50 mM sodium-HEPES pH 7.5, 0.5 M NaCl
[6] = molecular target: T2, SH2 domain of Crkl protein (residues …); test: as above
[7] = molecular target: T3, SH2 domain of Crkl protein (residues …); test: as above
[8] = molecular target: T2, SH2 domain of Crkl protein (residues …); test: stopped-flow fluorescence kinetics (FRET); dansyl-Pax112-123 constant at 2 μM mixed with Crkl-SH2 2 to 10 μM (pseudo-first-order, kon); koff by displacement of the preincubated 2 µM complex with excess non-dansylated Pax112-123 (30 μM); 283 K; 50 mM sodium-acetate pH 5.5, 0.5 M NaCl
[9] = molecular target: T3, SH2 domain of Crkl protein (residues …); test: as above
[10] = molecular target: T4, SH2 domain of Crkl protein (residues …); test: as above

B1: dansylated Pax_(112–123) peptide (Dans-GEEEHV-pY-SFPNK) (peptide)
peptide: Dansyl-GEEEHV[pY]SFPNK
notes: The dansyl group is the FRET acceptor of Trp14 of the SH2 domain; source: synthetic peptide, bought: GenScript
For B1, the Kd [1] was 2300 ± 300 nM, the koff [1] was 30.1 ± 3.3 s⁻¹ and the kon [1] was 1.32e+07 ± 700000 M⁻¹ s⁻¹. For the same binder, the Kd [2] was 2900 ± 100 nM, the koff [2] was 39 ± 0.7 s⁻¹ and the kon [2] was 1.32e+07 ± 500000 M⁻¹ s⁻¹. For the same binder, the Kd [3] was 3.1 ± 0.2 µM, the koff [3] was 41.4 ± 0.9 s⁻¹ and the kon [3] was 1.32e+07 ± 700000 M⁻¹ s⁻¹. The Kd [4] was 2000 ± 300 nM, the koff [4] was 29.3 ± 3.4 s⁻¹ and the kon [4] was 1.46e+07 ± 1.1e+06 M⁻¹ s⁻¹. The Kd [5] was 2000 ± 200 nM, the koff [5] was 27.8 ± 2.3 s⁻¹ and the kon [5] was 1.36e+07 ± 1.1e+06 M⁻¹ s⁻¹. The Kd [6] was 2600 ± 100 nM, the koff [6] was 25.9 ± 0.3 s⁻¹ and the kon [6] was 1e+07 ± 500000 M⁻¹ s⁻¹. For the same binder, the Kd [7] was 2800 ± 400 nM, the koff [7] was 28.6 ± 0.5 s⁻¹ and the kon [7] was 1.04e+07 ± 1.4e+06 M⁻¹ s⁻¹. For the same binder, the Kd [8] was 4.3 ± 0.2 µM, the koff [8] was 24.1 ± 0.4 s⁻¹ and the kon [8] was 5.6e+06 ± 300000 M⁻¹ s⁻¹. The Kd [9] was 3000 ± 300 nM, the koff [9] was 25.6 ± 0.4 s⁻¹ and the kon [9] was 8.4e+06 ± 700000 M⁻¹ s⁻¹. The Kd [10] was 3.4 ± 0.4 µM, the koff [10] was 22.8 ± 2.2 s⁻¹ and the kon [10] was 6.7e+06 ± 400000 M⁻¹ s⁻¹.
